B1: Forkhead box protein O3 (Homo sapiens), O43524 (parent)
chain: MAEAPASPAPLSPLEVELDPEFEPQSRPRSCTWPLQRPELQASPAKPSGETAADSMIPEEEDDEDDEDGGGRAGSAMAIGGGGGSGTLGSGLLLEDSARVLAPGGQDPGSGPATAAGGLSGGTQALLQPQQPLPPPQPGAAGGSGQPRKCSSRRNAWGNLSYADLITRAIESSPDKRLTLSQIYEWMVRCVPYFKDKGDSNSSAGWKNSIRHNLSLHSRFMRVQNEGTGKSSWWIINPDGGKSGKAPRRRAVSMDNSNKYTKSRGRAAKKKAALQTAPESADDSPSQLSKWPGSPTSRSSDELDAWTDFRSRTNSNASTVSGRLSPIMASTELDEVQDDDAPLSPMLYSSSASLSPSVSKPCTVELPRLTDMAGTMNLNDGLTENLMDDLLDNITLPPSQPSPTGGLMQRSSSFPYTTKGSGLGSPTSSFNSTVFGPSSLNSLRQSPMQTIQENKPATFSSMSHYGNQTLQDLLTSDSLSHSDVMMTQSDPLMSQASTAVSAQNSRRNVMLRNDPMMSFAAQPNQGSLVNQNLLHHQHQTQGALGGSRALSNSVSNMGLSESSSLGSAKHQQQSPVSQSMQTLSDSLSGSSLYSTSANLPVMGHEKFPSDLDLDMFNGSLECDMESIIRSELMDADGLDFNFDSLISTQNVVGLNVGNFTGAKQASSQSWVPG

Assays:
[1] = variants of: B1; conditions: with 1433z_mouse Ywhaz
akt1_human AKT1, P31749 = variants of: B1; conditions: with akt1_human AKT1, P31749
akt1_human AKT1, P31749, sequence (P31749 whole entry): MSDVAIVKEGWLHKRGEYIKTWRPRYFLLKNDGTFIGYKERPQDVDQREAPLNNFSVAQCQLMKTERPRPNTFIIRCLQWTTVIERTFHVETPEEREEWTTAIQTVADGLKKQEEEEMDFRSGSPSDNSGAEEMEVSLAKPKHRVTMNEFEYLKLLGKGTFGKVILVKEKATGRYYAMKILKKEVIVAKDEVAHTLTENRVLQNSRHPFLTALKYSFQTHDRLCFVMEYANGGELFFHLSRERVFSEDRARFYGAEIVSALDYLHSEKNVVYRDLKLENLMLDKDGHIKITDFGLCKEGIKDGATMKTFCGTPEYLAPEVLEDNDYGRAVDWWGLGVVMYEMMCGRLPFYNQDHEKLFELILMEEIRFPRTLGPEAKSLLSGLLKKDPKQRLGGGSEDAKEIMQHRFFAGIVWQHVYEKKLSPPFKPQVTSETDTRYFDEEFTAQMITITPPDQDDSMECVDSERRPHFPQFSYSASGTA

Variant	effect of a mutation on the interaction [1]	effect of a mutation on the interaction (akt1_human AKT1, P31749)
R27L;R29L	disrupting interaction strength	with no effect
R27L;R29L;R248L;R250L	disrupting interaction strength	decreasing interaction strength
R27L;R29L;R248L;R250L;R310L;R312L	disrupting interaction strength	decreasing interaction strength
T32A;S253A;S315A	disrupting interaction strength	decreasing interaction strength
P34A	decreasing interaction strength	with no effect

From IntAct's records for PubMed 21621563
